# Assay: yeast display, Sf9 membrane polyspecificity reagent, FACS + sequencing; frameworks hold sequencing errors
# Method in brief: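 Sorting gates, low and high (top ~1%), were placed on anti-HA fluorescence to track expression and on streptavidin fluorescence to track reagent binding. A clone's polyreactivity label is taken from the gate it came out of. The reagent was 10% biotinylated, detergent-solubilized Sf9 membrane, applied for 1 hour at 4 °C to galactose-induced yeast display cells.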
row,Sequence,polyreactivity (PSR sort gate)
1,QVQLVESGGVLVQAGGSLRLSCAASGSTFYNNAMGWYRQAPGKERALVATISSGGGSTYYADSVKGRFTISRDNEKNTVYLQMNSLKPEDTAVYYCAAYVLPYGEYDYWGQGTQVTVSS,low polyreactivity
2,QVQLVESGVGLVLAGGSLRLSCAASGRTFWSYAMGWYRKAPGKERELVAAITWSGTSTDYAVSVKGRFTISRDNAKNRVYLLMKSLKPEDTAVYYCAAIVYGQYRSRYYYWGQGTEVTVSS,high polyreactivity
3,QVQRVESGGGLVQAGGSLRLSCAASGRIFPSNAMGWYRQAPGKERELVAGINTRSGRTYYADSVKGRFTNSRDNAKKTDYLQLNSLKPEDTAVYYCAAARAWPLNYWYVPYDYWGQGTQVTVSS,high polyreactivity
4,QVQLVESGGGLVQAGGSLRLSCAASGRIFSRNAMGWYRQAPGKERELVAAISRSGGSTYYADSVKGRFTISRDNAKNTVYLQMNSLKPEDTAVYYCNTRYRPVKGSGPRYDYWGQGTQVTVSS,low polyreactivity
5,QVQLVESGGGLVQAGGSLRLSCAASGYTFTSNAMGWYRQAPGKERELVAAITNVGSTNYADSVKGRFTISRDNAKNTVYLQMNSLKPEDTAVYYCAADWDAVYLQTADYDYWGQGTQVTVSS,low polyreactivity
6,QVQLVESGGGLVQAGGSLRLSCAASGGTFQAYAMGWYRQAPGKERELVAAISRSGGRTYYADSVKGRFTISRDNAKNTVYLQMNSLKPEDTAVYYCNAGAYYRNEMDYWGQGTQVTVSS,high polyreactivity
7,QVQLVESGGGLVQAGGSLRLSCAASGYTFFTNAMGWYRQAPGKEREFVAAISKSGGNTYYADSVKGRFTISRDNAKNTVYLQMNSRKPEDTAVYYCAAQHRGYAGPRPYYYWGQGTQVTVSS,high polyreactivity
8,QVQLVESGGGLVQAGGSLRLSCAASGLIFSRYAMGWYRQAPGKERELVAAITWRGGSTYYADSVKGRFTISRDNAKNTVYLQMNSLKPEDTAVYYCNADGLWFQGYNSWGQGTQVTVSS,low polyreactivity
9,QVQLVESGGGLVQAGGSLRLSCAASGRIFYYNAMGWYRQAPGKERELVAGITSRGRSTYADSVKGRFTISRDNAKNTVYLQMNSLKPEDTAVYYCAAVYRLWGKDYDYWGQGTQVTVSS,high polyreactivity
10,QVQLVESGGGLVQAGGSLRLSCAASGRIFYRYTMGWYRQAPGKERELVAAITRGGNTYYADSVKGRFTISRDNAKNTVYLQMNSLKPEDTAVYYCAKKAPSDRNNYWGQGTQVTVSS,high polyreactivity
11,QVQLVESGGGLVQAGGSLRLSCAACGSTFLYYAMGWYRQAPGKERELVAGISWDGTSTYYADSVKGRFTISRDNAKNSVYLQMNSLKPEDTAVYYCAAFGWSRVYHWRFEWGQGTQVTVSS,low polyreactivity
12,QVQLVESGGGLVQAGGSLRLSCAASGLTFRSYTMGWYRQAPGKERELVAAISSGGSTYYADSVKGRFTISRDNAKHTVYLKMNSRKPEDTAVYYCAAPRGHGKYYSWGQGTQVNVSS,high polyreactivity
13,QVQLVESGGGLVQAGGSLRLSCAASGRIFVRYAMGWYRQAPGKERELVAAISKGGSSTYYADSVKGRFTISRDNAKNTVYLQMNSLKPEDTAVYYCAARVHGTGTLKYPNYYWGQGTQVTVSS,high polyreactivity
14,QVQLVESGGGLVQAGGSLRLSCAASGIIFYSYVMGWYRQAPGKERELVAVISRSGGRTYYADSVKGRFTISRDNAKNTVYLQMISLKPEDTAVYYWAAALGVALNDYWGQGTQVTVSS,high polyreactivity
15,QVQLVESGGGLVQAGGSLRLTCAASGRNFDYNARGWYRQAPGKEREFVAPISGRGGSTYYADSVKGRFTISRDNAKNRVYLQMNSLKPEDTAVYYCAADWRYRYSGRYDYWGQGTQVTVSS,high polyreactivity
16,QVQLVESGGGLVLAGGSLRLSCASSGRIFYGYAMVWSRQAPGKERELVAAITSSGRTYYADSVKGRFSISRDNAKNTVYLLMNSLKPEDTAVYYCNVVTKFTGRGYDFWGQGTQVTVSS,high polyreactivity
17,QVQLVESGGGLVQAGGSLRLSCAASGFIFSRYAMGWYRQAAGKERELVAAISYSGSSTYYADSVKGRFTISRDNAKNTVFLQMNSLKPEDTGVYYCNAVTQITGSSDGDYWGQGTQVTVSS,high polyreactivity
18,QVQLVESGGGLVQAGGSLRLSCAASGSILYYYAMGWYRQAPGKERELVAAISSSGGRTYYADSVKGRFTISRDNAKNTVYLQMNSLKPEDTAVYYCAATNRRQPYKDREDYWGQGTQVTVSS,high polyreactivity
19,QVQLVESGGGLVQAGGSLRLSCAASGLTFVYYAMGWYRQAPGNERELVAAISRRGGSTNYADSVKGRFTISRDNAKNTVYLQMNSLKPEDTAVYYCAATSRYFQPPGYGGGRIGYGYWGQGTQVTVSS,high polyreactivity
20,QVQLVESGGGLVQAGGSLRLSCAASGSTLAKKAMGWYRQEPGKERELVAAISKNGGTTYYADSVKGRFTISRDNAKNTVYLQMNSLKPEDTAVYYCAVSIWGWFASGFDYWGQGTQVTVSS,high polyreactivity
21,QVQLVESGGGLVQAGGSLRLSCAASGYTFRAYVMGWYRQAPGKERELVAGITRRGGTTYYADSVKGRFTISRDNAKNTVYLQMNSLKPEDTAVYYCNAVFRSGSIPYDSWGQGTQVTVSS,high polyreactivity
22,QVQLVESGGGLVQAGGSLRLSCAASGRTFLYYAMGWYRQAPGKERELVAAIRRGSSTYYADSVKGRFTISRDNAKNTVYLQMNSLKPEDTAVYYCNKVYYAFRVSLYRYGYWGQGTQVTVSS,high polyreactivity

row,Sequence,polyreactivity (PSR sort gate)
1,QVQLVESGGGLVQAGGSLRLSCAASGFTFRYNAMGWYRQAPGKERELVAAITSDVSTNYADSVKGRFTISRDNAKNTVYLEMNSLKAEDTAVYYCAKGTAKRIVGRSPGNTYEDHYWGQGTEVTVSS,low polyreactivity
2,QVQLVESGGGLVQAGGSLRLSCAASGFIFKGNAMGWYRQAPGKERELVAAITNRGGGTYYADSVKGRFTISRDNAKNTVYLQMNSLKPEDTAVYYCAKAYTRPFHPYDYWGQGTQVTVSS,high polyreactivity
3,QVQLVESGGGLVQAGGSLRLSCAASGYTLFRNAMGSYRQAPGKERELGAAISRSGARTYYADSVKGRFTISRDNAKNTVYLQMNSLKPEDTAVYYCAAVIKWTKDDYWGQGTQVTVSS,high polyreactivity
4,QVQLVESRGGLVQAGGSLRLSCAASGSIFTSYAMGWYRQAPGKERELVAAINGSGGSTFYADSVKGRFTISRDNAKNTVYLQMNSLKPQDTAVYYCNTGGPRGTTYDYWGQGTQVTVSS,low polyreactivity
5,QVQLVESGRGLVQAGGSLRLSCAASGFTFRNYAMGWYRQAPGKERELVAAITRRGGSTYYADSVKGRFTISRDNAKNTVYLQMNSLKTEDTAVYYCNADREVPWGKDNLDYWGQGTQVTVSS,high polyreactivity
6,QVQLVESVGGLVQAGGSLRLSCAASGFIFGSNAIGWYRQAPGKERELVAAITYSGASTYYADSVKGRFTISRDNAKNTVYLQMNRLKPEDTAVYYCATRYSVFVSGRFNYWGQGTQVTVSS,low polyreactivity
7,QVQLVESGGGLVQAGGSLRLSCAASGSIFYGYAMGWYRQAPGKERELVAAITSSGTRTYYADSVKGRFTISRDNAKNTVYLQMNSLKPEDTAVYYCAADGPGYQYDYWGQGTQVTVSS,high polyreactivity
8,QVQLVESGGGLVQAGGSLRLSCAASGSTLATYTMGWYRQAPGKERELVAAISFGGSTYYADSVKGRFTISRDNAKNTVYLQMNSLKPEDTAVYYCAVYGDSYWGAYYYSDGYWGQGSQVTVSS,low polyreactivity
9,QVQLVESGGGLVQAGGSLRLSCAASGRIFQINAMGWYRQAPGKERELVAAISWSDDTTYYADSVKGRFTISRDNAKNTVYLQMISLKPEDTAVYYCAAERGQDYSYSGDDDYWGQGTQVTVSS,high polyreactivity
10,QVQLVESGGGLVQAGGSLRLSCAASGRIFRYNTMGWYRQAPGKEREFVAAITQRGVNTYYADSVKGRFTISRDNAKNTVYLQLNSLKPEDTAVYYCNAKRYSYWIYRAYDYWGQGTQVTVSS,low polyreactivity
11,QVQLVESGGGLVQAGGSLRLSCAASVRIFYRYGMGLYRQAPGKERELVASITRGGSTYYADSVKGRFTISRDNAKNTVYLQMNSLKPEDTAVYYCATKSSAGYDYWGQGTQVTVSS,low polyreactivity
12,QVQLVESGGGLVQAGGSLRLSCAASGRIFFTNAMGWYRQAPGKERELVAAISKSGARTYYADSVKGRFTISRDNAKNTVYLQMNSLKPEDTAVYYCAADVSVSGYGYWGQGTQVTVSS,high polyreactivity
13,QVQLVESGGGLVQAGGSLRLSCAASGRTFGRYAMGWYRKAPGKERELVAAISCSGGSTYYADSVKGRFTISRDNAKNTVYLQMNSLKPEDTAVYYCAADWRQGLWYGYYYWGQGTQVTVSS,low polyreactivity
14,QVQLVESGGGLVQEGGSLRLSCAASGSTFDSNAMGWYRQAPGTERELVAAIDWSGGSTYYADSVKGRFTISRDNAKNSVYLQMNSLKPEDTAVYYCAADDYSSNYGDFDYWGQGTQVTVSS,low polyreactivity
15,QVQLVESGGGLVQAGGSLRLSCAASGNTFFLNAMGWYRQAPGKERELVAAITSSGGSTYYADSVKGRFTISRDNAKNTVYLQMNSLKPEDTAVYYCATDRSYPPRSLNRRGPYEYWGQGTQVTVSS,low polyreactivity
16,QVQLVESGGGLVQAGGSLRLSCAASGRTFISNAMGWYRQAPGKERELVATINSGGSTNYADSVKGRFTISRDNAKNTVYLQMNSLKPEDTAVYYCARRVRYKHYDYWGQGTQVTVSS,high polyreactivity
17,QVQIVESGGGLVQAGGSLRLSCAASGRIFIRYSMGWYRHAPGIERELVAAISSGGRTYYADSVKGRFTISRDNATNTVYLQMNSLNPEDTAVYYCARASSIARYDNWGQGTQVTVSS,high polyreactivity
18,QVHLVESGGGLVQAGGSLRLSCAASGSIFGTNALGWYRQAPGKERELVAAINWSGGTTYYADSVKGRFTISRDNAKNTVYLQMNTLKPEDTAVYYCATFFFVLPPTRFDSWGQGTQVTVSS,low polyreactivity
19,QVQLVESGGGLVQAGGSLRLSCAASGRIFGGNAMGWYRPAPGKERELVAAISKRGGSTYYADSVKGRFTISRDNAKNTVYLQMNSLKPEDSAVYYCAATAYADQGLDYGYWGQGTQVTVSS,high polyreactivity
20,QVQLVESGGGLVQAGGSLRLSCAASGRTFGYYAMGWYRQAPGKERELFDAITGRTSRTYYADSVKGRFTISRDNAKNTVYLQMNSLKPEDTAVYYCAARYTRWRYNYKDYDYWGQGTQVTVSS,high polyreactivity
21,QVQLVESGGGLVQAGGSLRLSCAASGITFDHYAMGWYRQAPGKERELVAAITSGGNTNYADSVKGRFTISRDNAKNTVYLQMNSLKPEDTAVYYCNARYDVWYYYWGQGTQVTVSS,high polyreactivity

# — the nanobody polyreactivity screen of Harvey et al. (2022)
